T1: Bovine, dephosphorylated, Myelin Basic Protein (MBP), P02687
T1 chain: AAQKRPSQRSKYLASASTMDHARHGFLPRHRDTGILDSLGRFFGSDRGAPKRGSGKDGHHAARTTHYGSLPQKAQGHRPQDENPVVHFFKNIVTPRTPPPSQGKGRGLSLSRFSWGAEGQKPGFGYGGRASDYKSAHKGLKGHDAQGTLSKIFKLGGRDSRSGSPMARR

B1: EPHB4 (protein)
chain: LCLRKQSNGREAEYSDKHGQYLIGHGTKVYIDPFTYEDPNEAVREFAKEIDVSYVKIEEVIGAGEFGEVCRGRLKAPGKKESCVAIKTLKGGYTERQRREFLSEASIMGQFEHPNIIRLEGVVTNSMPVMILTEFMENGALDSFLRLNDGQFTVIQLVGMLRGIASGMRYLAEMSYVHRDLAARNILVNSNLVCKVSDFGLSRFLEENSSDPTYTSSLGGKIPIRWTAPEAIAFRKFTSASDAWSYGIVMWEVMSFGERPYWDMSNQDVINAIEQDYRLPPPPDCPTSLHQLMLDCWQKDRNARPRFPQVVSALDKMIRNPASLKIVARENGGASHPLLDQRQPHYSAFGSVGEWLRAIKMGRYEESFAAAGFGSFELVSQISAEDLLRIGVTLAGHQKKILASVQHMKSQAKPGTPGGTGGPAPQY
B2: RPS6KB2(p70S6K2) (protein)
chain: MAAVFDLDLETEEGSEGEGEPELSPADACPLAELRAAGLEPVGHYEEVELTETSVNVGPERIGPHCFELLRVLGKGGYGKVFQVRKVQGTNLGKIYAMKVLRKAKIVRNAKDTAHTRAERNILESVKHPFIVELAYAFQTGGKLYLILECLSGGELFTHLEREGIFLEDTACFYLAEITLALGHLHSQGIIYRDLKPENIMLSSQGHIKLTDFGLCKESIHEGAVTHTFCGTIEYMAPEILVRSGHNRAVDWWSLGALMYDMLTGSPPFTAENRKKTMDKIIRGKLALPPYLTPDARDLVKKFLKRNPSQRIGGGPGDAADVQRHPFFRHMNWDDLLAWRVDPPFRPCLQSEEDVSQFDTRFTRQTPVDSPDDTALSESANQAFLGFTYVAPSVLDSIKEGFSFQPKLRSPRRLNSSPRAPVSPLKFSPFEGFRPSPSLPEPTELPLPPLLPPPPPSTTAPLPIRPPSGTKKSKRGRGRPGR
B3: RPS6KA2(RSK3) (protein)
chain: MDLSMKKFAVRRFFSVYLRRKSRSKSSSLSRLEEEGVVKEIDISHHVKEGFEKADPSQFELLKVLGQGSYGKVFLVRKVKGSDAGQLYAMKVLKKATLKVRDRVRSKMERDILAEVNHPFIVKLHYAFQTEGKLYLILDFLRGGDLFTRLSKEVMFTEEDVKFYLAELALALDHLHSLGIIYRDLKPENILLDEEGHIKITDFGLSKEAIDHDKRAYSFCGTIEYMAPEVVNRRGHTQSADWWSFGVLMFEMLTGSLPFQGKDRKETMALILKAKLGMPQFLSGEAQSLLRALFKRNPCNRLGAGIDGVEEIKRHPFFVTIDWNTLYRKEIKPPFKPAVGRPEDTFHFDPEFTARTPTDSPGVPPSANAHHLFRGFSFVASSLIQEPSQQDLHKVPVHPIVQQLHGNNIHFTDGYEIKEDIGVGSYSVCKRCVHKATDTEYAVKIIDKSKRDPSEEIEILLRYGQHPNIITLKDVYDDGKFVYLVMELMRGGELLDRILRQRYFSEREASDVLCTITKTMDYLHSQGVVHRDLKPSNILYRDESGSPESIRVCDFGFAKQLRAGNGLLMTPCYTANFVAPEVLKRQGYDAACDIWSLGILLYTMLAGFTPFANGPDDTPEEILARIGSGKYALSGGNWDSISDAAKDVVSKMLHVDPHQRLTAMQVLKHPWVVNREYLSPNQLSRQDVHLVKGAMAATYFALNRTPQAPRLEPVLSSNLAQRRGMKRLTSTRL
B4: RPS6KB1(p70S6K) (protein)
chain: MRRRRRRDGFYPAPDFRDREAEDMAGVFDIDLDQPEDAGSEDELEEGGQLNESMDHGGVGPYELGMEHCEKFEISETSVNRGPEKIRPECFELLRVLGKGGYGKVFQVRKVTGANTGKIFAMKVLKKAMIVRNAKDTAHTKAERNILEEVKHPFIVDLIYAFQTGGKLYLILEYLSGGELFMQLEREGIFMEDTACFYLAEISMALGHLHQKGIIYRDLKPENIMLNHQGHVKLTDFGLCKESIHDGTVTHTFCGTIEYMAPEILMRSGHNRAVDWWSLGALMYDMLTGAPPFTGENRKKTIDKILKCKLNLPPYLTQEARDLLKKLLKRNAASRLGAGPGDAGEVQAHPFFRHINWEELLARKVEPPFKPLLQSEEDVSQFDSKFTRQTPVDSPDDSTLSESANQVFLGFEYVAPSVLES
B5: STK17A(DRAK1) (protein)
chain: MIPLEKPGSGGSSPGATSGSGRAGRGLSGPCRPPPPPQARGLLTEIRAVVRTEPFQDGYSLCPGRELGRGKFAVVRKCIKKDSGKEFAAKFMRKRRKGQDCRMEIIHEIAVLELAQDNPWVINLHEVYETASEMILVLEYAAGGEIFDQCVADREEAFKEKDVQRLMRQILEGVHFLHTRDVVHLDLKPQNILLTSESPLGDIKIVDFGLSRILKNSEELREIMGTPEYVAPEILSYDPISMATDMWSIGVLTYVMLTGISPFLGNDKQETFLNISQMNLSYSEEEFDVLSESAVDFIRTLLVKKPEDRATAEECLKHPWLTQSSIQEPSFRMEKALEEANALQEGHSVPEINSDTDKSETKESIVTEELIVVTSYTLGQCRQSEKEKMEQKAISKRFKFEEPLLQEIPGEFIY
B6: RPS6KA4(MSK2) (protein)
chain: MGDEDDDESCAVELRITEANLTGHEEKVSVENFELLKVLGTGAYGKVFLVRKAGGHDAGKLYAMKVLRKAALVQRAKTQEHTRTERSVLELVRQAPFLVTLHYAFQTDAKLHLILDYVSGGEMFTHLYQRQYFKEAEVRVYGGEIVLALEHLHKLGIIYRDLKLENVLLDSEGHIVLTDFGLSKEFLTEEKERTFSFCGTIEYMAPEIIRSKTGHGKAVDWWSLGILLFELLTGASPFTLEGERNTQAEVSRRILKCSPPFPPRIGPVAQDLLQRLLCKDPKKRLGAGPQGAQEVRNHPFFQGLDWVALAARKIPAPFRPQIRSELDVGNFAEEFTRLEPVYSPPGSPPPGDPRIFQGYSFVAPSILFDHNNAVMTDGLEAPGAGDRPGRAAVARSAMMQDSPFFQQYELDLREPALGQGSFSVCRRCRQRQSGQEFAVKILSRRLEANTQREVAALRLCQSHPNVVNLHEVHHDQLHTYLVLELLRGGELLEHIRKKRHFSESEASQILRSLVSAVSFMHEEAGVVHRDLKPENILYADDTPGAPVKIIDFGFARLRPQSPGVPMQTPCFTLQYAAPELLAQQGYDESCDLWSLGVILYMMLSGQVPFQGASGQGGQSQAAEIMCKIREGRFSLDGEAWQGVSEEAKELVRGLLTVDPAKRLKLEGLRGSSWLQDGSARSSPPLRTPDVLESSGPAVRSGLNATFMAFNRGKREGFFLKSVENAPLAKRRKQKLRSATASRRGSPAPANPGRAPVASKGAPRRANGPLPPS
B7: SLK (protein)
chain: MSFFNFRKIFKLGSEKKKKQYEHVKRDLNPEDFWEIIGELGDGAFGKVYKAQNKETSVLAAAKVIDTKSEEELEDYMVEIDILASCDHPNIVKLLDAFYYENNLWILIEFCAGGAVDAVMLELERPLTESQIQVVCKQTLDALNYLHDNKIIHRDLKAGNILFTLDGDIKLADFGVSAKNTRTIQRRDSFIGTPYWMAPEVVMCETSKDRPYDYKADVWSLGITLIEMAEIEPPHHELNPMRVLLKIAKSEPPTLAQPSRWSSNFKDFLKKCLEKNVDARWTTSQLLQHPFVTVDSNKPIRELIAEAKAEVTEEVEDGKEEDEEEETENSLPIPASKRASSDLSIASSEEDKLSQNACILESVSEKTERSNSEDKLNSKILNEKPTTDEPEKAVEDINEHITDAQLEAMTELHDRTAVIKENEREKRPKLENLPDTEDQETVDINSVSEGKENNIMITLETNIEHNLKSEEEKDQEKQQMFENKLIKSEEIKDTILQTVDLVSQETGEKEANIQAVDSEVGLTKEDTQEKLGEDDKTQKDVISNTSDVIGTCEAADVAQKVDEDSAEDTQSNDGKEVVEVGQKLINKPMVGPEAGGTKEVPIKEIVEMNEIEEGKNKEQAINSSENIMDINEEPGTTEGEEITESSSTEEMEVRSVVADTDQKALGSEVQDASKVTTQIDKEKKEIPVSIKKEPEVTVVSQPTEPQPVLIPSININSDSGENKEEIGSLSKTETILPPESENPKENDNDSGTGSTADTSSIDLNLSISSFLSKTKDSGSISLQETRRQKKTLKKTRKFIVDGVEVSVTTSKIVTDSDSKTEELRFLRRQELRELRFLQKEEQRAQQQLNSKLQQQREQIFRRFEQEMMSKKRQYDQEIENLEKQQKQTIERLEQEHTNRLRDEAKRIKGEQEKELSKFQNMLKNRKKEVINEVEKAPKELRKELMKRRKEELAQSQHAQEQEFVQKQQQELDGSLKKIIQQQKAELANIERECLNNKQQLMRAREAAIWELEERHLQEKHQLLKQQLKDQYFMQRHQLLKRHEKETEQMQRYNQRLIEELKNRQTQERARLPKIQRSEAKTRMAMFKKSLRINSTATPDQDRDKIKQFAAQEEKRQKNERMAQHQKHENQMRDLQLQCEANVRELHQLQNEKCHLLVEHETQKLKELDEEHSQELKEWREKLRPRKKTLEEEFARKLQEQEVFFKMTGESECLNPSTQSRISKFYPIPSLHSTGS
B8: SGK2 (protein)
chain: LPDHCYRMNSSPAGTPSPQPSRANGNINLGPSANPNAQPTDFDFLKVIGKGNYGKVLLAKRKSDGAFYAVKVLQKKSILKKKEQSHIMAERSVLLKNVRHPFLVGLRYSFQTPEKLYFVLDYVNGGELFFHLQRERRFLEPRARFYAAEVASAIGYLHSLNIIYRDLKPENILLDCQGHVVLTDFGLCKEGVEPEDTTSTFCGTPEYLAPEVLRKEPYDRAVDWWCLGAVLYEMLHGLPPFYSQDVSQMYENILHQPLQIPGGRTVAACDLLQSLLHKDQRQRLGSKADFLEIKNHVFFSPINWDDLYHKRLTPPFNPNVTGPADLKHFDPEFTQEAVSKSIGCTPDTVASSSGASSAFLGFDYAPEDDDILDC
B9: SRPK2 (protein)
chain: MSSRKVLAIQARKRRPKREKHPKKPEPQQKAPLVPPPPPPPPPPPPPLPDPTPPEPEEEILGSDDEEQEDPADYCKGGYHPVKIGDLFNGRYHVIRKLGWGHFSTVWLCWDMQGKRFVAMKVVKSAQHYTETALDEIKLLKCVRESDPSDPNKDMVVQLIDDFKISGMNGIHVCMVFEVLGHHLLKWIIKSNYQGLPVRCVKSIIRQVLQGLDYLHSKCKIIHTDIKPENILMCVDDAYVRRMAAEATEWQKAGAPPPSGSAVSTAPQQKPIGKISKNKKKKLKKKQKRQAELLEKRLQEIEELEREAERKIIEENITSAAPSNDQDGEYCPEVKLKTTGLEEAAEAETAKDNGEAEDQEEKEDAEKENIEKDEDDVDQELANIDPTWIESPKTNGHIENGPFSLEQQLDDEDDDEEDCPNPEEYNLDEPNAESDYTYSSSYEQFNGELPNGRHKIPESQFPEFSTSLFSGSLEPVACGSVLSEGSPLTEQEESSPSHDRSRTVSASSTGDLPKAKTRAADLLVNPLDPRNADKIRVKIADLGNACWVHKHFTEDIQTRQYRSIEVLIGAGYSTPADIWSTACMAFELATGDYLFEPHSGEDYSRDEDHIAHIIELLGSIPRHFALSGKYSREFFNRRGELRHITKLKPWSLFDVLVEKYGWPHEDAAQFTDFLIPMLEMVPEKRASAGECLRHPWLNS

Target: T1, Bovine, dephosphorylated, Myelin Basic …

Row | Protein | MBP Kinase Activity
1 | B1 | Strong
2 | B2 | Negative
3 | B3 | Negative
4 | B4 | Negative
5 | B5 | Negative
6 | B6 | Weak
7 | B7 | Weak
8 | B8 | Weak
9 | B9 | Strong

Reference: patent US20090099029
